Where two headings read alike, the source gives them in different places.
How the values were obtained:
[1] = system: patients; conditions: cited from earlier work
[2] = system: kittens; conditions: 0.1 mg/mL in kitten-formula mixed with cow milk, 5 days; cited from earlier work
[3] = Specific activity with PNPB substrate, sodium cholate as bile-salt activator; format: biochemical; conditions: 20 mM sodium cholate activation solution, 27° C., after HA-HPLC and SE-HPLC purification
Protocol: Differences in functional properties are observed between rhBSSL-CHO and BSSL-MAM and from rhBSSL-OVI. The specific activity of rhBSSL-CHO is observed to be higher than that of the other forms of BSSL. The specific activities of BSSL-MAM and rhBSSL-OVI are only 80% of that of rhBSSL-CHO based on mass. Each sample is specifically purified by HA-HPLC and SE-HPLC before determination of specific activity. Specific activity is determined using 4-nitrophenyl ester butyric acid (PNPB) as a substrate for BSSL, and detection of the release of 4-nitrophenol. Briefly, a dilution series of rhBSSL (for example, from 20 to 160 ng activity/mL) is prepared in PBS with 0.1% BSA. 200 μl of these rhBSSL solutions is added to 25 μl of an activation solution containing 20 mM sodium cholate (as bile-salt activator) in PBS with 0.1% BSA. These solutions are preincubated in a spectrophotometer at 27° C. for 5 minutes. Just before measuring, 25 μl of a well-mixed substrate solution containing 5 mM PNPB in PBS-Tween is added. The formation of 4-nitrophenol can be detected by its absorbance at 400 nm and the increase in absorbance is measured during 90 seconds. The active amount of BSSL is determined using a standard curve of an rhBSSL reference standard.

[4] = system: CF patients (aged 12 to 39 years) with PI; conditions: single dosing of 0.2 g or 1 g as complement to 25% of regular Creon dosing; cited from earlier work

agalsidase alfa: recombinant human alpha-galactosidase A produced in a continuous line of human fibroblasts
Patients with presence of IgG ([1]; in vivo): 55%

agalsidase beta: recombinant human alpha-galactosidase A produced in CHO cells
Patients with presence of IgG ([1]; treated patients): almost all patients

B1: BSSL-MAM: native human milk bile-salt-stimulated lipase (protein, UniProt P19835 21-753, looked up)
Bile salt-activated lipase: AKLGAVYTEGGFVEGVNKKLGLLGDSVDIFKGIPFAAPTKALENPQPHPGWQGTLKAKNFKKRCLQATITQDSTYGDEDCLYLNIWVPQGRKQVSRDLPVMIWIYGGAFLMGSGHGANFLNNYLYDGEEIATRGNVIVVTFNYRVGPLGFLSTGDANLPGNYGLRDQHMAIAWVKRNIAAFGGDPNNITLFGESAGGASVSLQTLSPYNKGLIRRAISQSGVALSPWVIQKNPLFWAKKVAEKVGCPVGDAARMAQCLKVTDPRALTLAYKVPLAGLEYPMLHYVGFVPVIDGDFIPADPINLYANAADIDYIAGTNNMDGHIFASIDMPAINKGNKKVTEEDFYKLVSEFTITKGLRGAKTTFDVYTESWAQDPSQENKKKTVVDFETDVLFLVPTEIALAQHRANAKSAKTYAYLFSHPSRMPVYPKWVGADHADDIQYVFGKPFATPTGYRPQDRTVSKAMIAYWTNFAKTGDPNMGDSAVPTHWEPYTTENSGYLEITKKMGSSSMKRSLRTNFLRYWTLTYLALPTVTDQEATPVPPTGDSEATPVPPTGDSETAPVPPTGDSGAPPVPPTGDSGAPPVPPTGDSGAPPVPPTGDSGAPPVPPTGDSGAPPVPPTGDSGAPPVPPTGDSGAPPVPPTGDSGAPPVPPTGDAGPPPVPPTGDSGAPPVPPTGDSGAPPVTPTGDSETAPVPPTGDSGAPPVPPTGDSEAAPVPPTDDSKEAQMPAVIRF
Growth rate versus kittens fed formula alone [2]: twice
Specific activity relative to that of rhBSSL-CHO, based on mass [3]: 80%

B2: rhBSSL-OVI: recombinant human BSSL produced in / isolated from the milk of transgenic sheep (protein, UniProt P19835 21-753, looked up)
Bile salt-activated lipase: AKLGAVYTEGGFVEGVNKKLGLLGDSVDIFKGIPFAAPTKALENPQPHPGWQGTLKAKNFKKRCLQATITQDSTYGDEDCLYLNIWVPQGRKQVSRDLPVMIWIYGGAFLMGSGHGANFLNNYLYDGEEIATRGNVIVVTFNYRVGPLGFLSTGDANLPGNYGLRDQHMAIAWVKRNIAAFGGDPNNITLFGESAGGASVSLQTLSPYNKGLIRRAISQSGVALSPWVIQKNPLFWAKKVAEKVGCPVGDAARMAQCLKVTDPRALTLAYKVPLAGLEYPMLHYVGFVPVIDGDFIPADPINLYANAADIDYIAGTNNMDGHIFASIDMPAINKGNKKVTEEDFYKLVSEFTITKGLRGAKTTFDVYTESWAQDPSQENKKKTVVDFETDVLFLVPTEIALAQHRANAKSAKTYAYLFSHPSRMPVYPKWVGADHADDIQYVFGKPFATPTGYRPQDRTVSKAMIAYWTNFAKTGDPNMGDSAVPTHWEPYTTENSGYLEITKKMGSSSMKRSLRTNFLRYWTLTYLALPTVTDQEATPVPPTGDSEATPVPPTGDSETAPVPPTGDSGAPPVPPTGDSGAPPVPPTGDSGAPPVPPTGDSGAPPVPPTGDSGAPPVPPTGDSGAPPVPPTGDSGAPPVPPTGDSGAPPVPPTGDAGPPPVPPTGDSGAPPVPPTGDSGAPPVTPTGDSETAPVPPTGDSGAPPVPPTGDSEAAPVPPTDDSKEAQMPAVIRF
modifications: produced in transgenic sheep milk
Lipid uptake versus Creon alone [4]: more rapid and efficient lipid uptake
Specific activity relative to that of rhBSSL-CHO, based on mass [3]: 80%

From patent publication US8986682B2, “Method to increase the absorption of unsaturated fatty acids by human infants” (Swedish Orphan Biovitrum AB (publ), priority 2010, dated 2015)
